Laboratory results: publication doi:10.1101/2024.12.05.626941

Legend:
Assay in all cases: SEC
[1] = molecular target: Physcomitrella patens adenosine kinase 2 (PpADK2) (Physcomitrella patens)
[2] = molecular target: Zea mays adenosine kinase 1 (ZmADK1) (Zea mays)
[3] = molecular target: Zea mays adenosine kinase 2 (ZmADK2) (Zea mays)
[4] = molecular target: Zea mays adenosine kinase 3 (ZmADK3) (Zea mays)

**Q.** With “Physcomitrella patens adenosine kinase 2 (PpADK2) (enzyme)” as the substance, how does the stoichiometry N [1] read?
**A.** 2

**Q.** Which stoichiometry N [2] does the source give for “Zea mays adenosine kinase 1 (ZmADK1) (enzyme)” here?
**A.** 2

**Q.** “Zea mays adenosine kinase 2 (ZmADK2) (enzyme)” was tested. Which stoichiometry N [3] did it give?
**A.** 2

**Q.** How did the stoichiometry N [4] turn out when “Zea mays adenosine kinase 3 (ZmADK3) (enzyme)” was run?
**A.** 2
